The series concerns the target DNMT1 (human, UniProt P26358 1-1616). The experiment in a line: EMSA; SAM 20-fold excess + GSK3852279B 5-fold excess; no substantial change in binding; EMSA: 25 mM Tris-HCl pH 7.5, 40 mM NaCl, 20% glycerol, 1 mM DTT, 0.5 mM MgCl2, overnight at room temperature; covalent assay: 25 mM Tris-HCl pH 7.5, 20 mM KCl. The settings on record: protein: recombinant; tags: N-terminal Flag-6xHis-TEV site; blunt.

Chain of DNMT1 (P26358 whole entry): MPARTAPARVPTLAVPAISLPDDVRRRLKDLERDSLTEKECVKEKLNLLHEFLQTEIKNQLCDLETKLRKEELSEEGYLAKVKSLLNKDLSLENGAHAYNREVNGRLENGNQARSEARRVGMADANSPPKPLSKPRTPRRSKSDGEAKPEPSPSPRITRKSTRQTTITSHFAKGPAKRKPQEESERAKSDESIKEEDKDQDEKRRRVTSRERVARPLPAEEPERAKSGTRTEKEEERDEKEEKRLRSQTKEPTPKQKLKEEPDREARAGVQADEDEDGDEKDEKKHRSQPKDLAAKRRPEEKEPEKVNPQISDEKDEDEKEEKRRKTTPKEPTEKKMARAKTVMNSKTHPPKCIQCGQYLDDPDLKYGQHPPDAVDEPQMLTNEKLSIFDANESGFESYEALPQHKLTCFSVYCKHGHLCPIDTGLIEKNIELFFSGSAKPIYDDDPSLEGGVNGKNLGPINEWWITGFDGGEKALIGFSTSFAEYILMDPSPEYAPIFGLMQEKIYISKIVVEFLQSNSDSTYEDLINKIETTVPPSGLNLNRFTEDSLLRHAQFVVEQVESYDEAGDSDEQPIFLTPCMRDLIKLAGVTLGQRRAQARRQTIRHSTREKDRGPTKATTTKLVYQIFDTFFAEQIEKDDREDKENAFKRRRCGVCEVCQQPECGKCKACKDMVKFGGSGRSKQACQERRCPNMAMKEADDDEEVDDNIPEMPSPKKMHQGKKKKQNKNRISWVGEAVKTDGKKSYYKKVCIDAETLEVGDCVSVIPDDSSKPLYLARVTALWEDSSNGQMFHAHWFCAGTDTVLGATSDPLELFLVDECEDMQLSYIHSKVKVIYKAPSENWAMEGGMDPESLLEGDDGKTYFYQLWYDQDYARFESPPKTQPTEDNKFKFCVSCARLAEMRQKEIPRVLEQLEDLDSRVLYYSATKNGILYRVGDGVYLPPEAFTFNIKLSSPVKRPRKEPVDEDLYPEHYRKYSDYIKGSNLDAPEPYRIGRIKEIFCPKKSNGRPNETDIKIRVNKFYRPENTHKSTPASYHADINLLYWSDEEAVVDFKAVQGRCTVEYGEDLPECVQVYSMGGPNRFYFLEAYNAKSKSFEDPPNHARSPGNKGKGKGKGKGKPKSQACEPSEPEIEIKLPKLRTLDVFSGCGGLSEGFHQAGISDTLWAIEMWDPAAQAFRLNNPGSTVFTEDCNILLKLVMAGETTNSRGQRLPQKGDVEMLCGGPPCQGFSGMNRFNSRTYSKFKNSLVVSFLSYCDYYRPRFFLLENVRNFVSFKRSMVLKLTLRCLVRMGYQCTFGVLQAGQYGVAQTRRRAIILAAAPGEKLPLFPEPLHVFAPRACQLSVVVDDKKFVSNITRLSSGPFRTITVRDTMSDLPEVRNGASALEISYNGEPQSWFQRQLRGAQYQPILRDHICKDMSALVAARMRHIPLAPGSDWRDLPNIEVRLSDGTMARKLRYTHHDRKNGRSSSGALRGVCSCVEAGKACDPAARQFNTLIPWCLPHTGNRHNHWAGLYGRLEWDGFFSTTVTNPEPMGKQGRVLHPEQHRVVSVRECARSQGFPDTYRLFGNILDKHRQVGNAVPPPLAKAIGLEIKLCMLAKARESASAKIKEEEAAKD

B1: 26 bp hemi-methylated DNA (dsDNA)
DNA 1: TGGAGTCGAGGCCGCCTGCGCAGGAC
DNA 2: GTCCTGCGCAGGCGGCCTCGACTCCA
modifications: 5-methyl-dC at position 13 of strand 1
With B1, the binding result is “binds”.

For the origin of these results see PMC11371216, “Structural insight into the DNMT1 reaction cycle by cryo-electron microscopy”.
